In patent publication US20240084027A1 (BEIJING MABWORKS, published 2024):
Like-named read-outs stand apart in the source and are kept apart here.

T1: monkey CD40 on HEK293A/monkey CD40 cells (monkey, UniProt P25942 21-277 (human entry))
T1 chain: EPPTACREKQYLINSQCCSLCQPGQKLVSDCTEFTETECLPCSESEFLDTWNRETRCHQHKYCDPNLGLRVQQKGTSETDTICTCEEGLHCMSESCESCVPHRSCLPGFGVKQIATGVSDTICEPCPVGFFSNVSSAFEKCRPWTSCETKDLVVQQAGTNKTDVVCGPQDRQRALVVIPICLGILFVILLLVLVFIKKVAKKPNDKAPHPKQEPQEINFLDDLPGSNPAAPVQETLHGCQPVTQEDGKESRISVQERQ

T2: mouse CD40 on HEK293A cells (mouse, UniProt P27512 20-289)
T2 sequence: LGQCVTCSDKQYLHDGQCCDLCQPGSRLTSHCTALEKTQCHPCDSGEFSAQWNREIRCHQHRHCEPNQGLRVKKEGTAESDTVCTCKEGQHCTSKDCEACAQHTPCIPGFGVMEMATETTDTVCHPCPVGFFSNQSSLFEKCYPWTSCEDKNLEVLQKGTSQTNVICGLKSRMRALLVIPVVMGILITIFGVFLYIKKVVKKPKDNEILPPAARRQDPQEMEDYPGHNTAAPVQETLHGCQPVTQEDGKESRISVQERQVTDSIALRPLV


How the values were obtained:
[1] = target: T3, human PD-L1 on HEK293A/human PD-L1 cells (human, UniProt Q9NZQ7 19-290); assay: FACS on HEK293A/human PD-L1 cells
T3 sequence (Q9NZQ7 19-290 limits assumed): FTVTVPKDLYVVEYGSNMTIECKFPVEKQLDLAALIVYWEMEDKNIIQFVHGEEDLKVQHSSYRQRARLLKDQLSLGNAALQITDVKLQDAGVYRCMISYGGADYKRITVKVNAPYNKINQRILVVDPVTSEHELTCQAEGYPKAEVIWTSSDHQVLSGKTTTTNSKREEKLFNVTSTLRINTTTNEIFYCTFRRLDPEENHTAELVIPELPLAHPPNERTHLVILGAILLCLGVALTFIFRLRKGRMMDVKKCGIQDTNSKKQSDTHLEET
Procedure: (§1) The bispecific antibodies as prepared above were tested for their binding capability to cell surface human, monkey and mouse CD40 proteins by FACS, using the HEK293A cells prepared in Example 1 that stably expressed human, monkey or mouse CD40. Briefly, a 96-well plate was seeded with 10⁵ HEK293A cells in 50 μl PBS, and then added with 100 μl serially diluted anti-CD40 antibody 714VH2VL2 and the bispecific antibodies of the disclosure (starting concentration at 40 μg/ml). After incubation at 4° C. for 1 h, the plate was washed by PBST for 3 times. The plate was added with 1:500 diluted APC-goat anti-mouse IgG (Cat #:405308, BioLegen, USA), incubated at 4° for 1 h, washed with PBS for 3 times, and subjected to fluorescence measurement in a FACS machine (BD).
(§2) Following the protocol of Example 4, the bispecific antibodies were tested for their binding capability to cell surface human, or monkey PD-L1 proteins by FACS, using the HEK293A cells prepared in Example 1 that stably expressed human or monkey […].

[2] = target: monkey PD-L1 on HEK293A/monkey PD-L1 cells (monkey, UniProt Q9NZQ7 19-290 (human entry)); assay: FACS on HEK293A/monkey PD-L1 cells
monkey PD-L1 on HEK293A/monkey PD-L1 cells, sequence (Q9NZQ7 other isoform, or with tags, fused parts or gaps limits assumed): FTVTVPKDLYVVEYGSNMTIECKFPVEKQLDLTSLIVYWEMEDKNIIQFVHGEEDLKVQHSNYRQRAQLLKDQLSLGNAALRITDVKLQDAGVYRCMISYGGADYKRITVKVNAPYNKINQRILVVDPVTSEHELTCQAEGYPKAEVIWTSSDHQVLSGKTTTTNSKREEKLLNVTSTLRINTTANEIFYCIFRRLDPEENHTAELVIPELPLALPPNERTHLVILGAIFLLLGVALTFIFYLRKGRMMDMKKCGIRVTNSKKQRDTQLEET
Procedure: as §1, §2

[3] = target: T1, monkey CD40 on HEK293A/monkey CD40 cells; assay: FACS on HEK293A/monkey CD40 cells
Procedure: as §1

[4] = target: T2, mouse CD40 on HEK293A cells; assay: FACS on HEK293A cells expressing mouse CD40
Procedure: as §1

[5] = target: T4, human CD40 on HEK293A/human CD40 cells (human, UniProt P25942 21-277); assay: FACS on HEK293A/human CD40 cells
T4 construct: also called HEK-Blue/CD40 cells
Procedure: as §1

[6] = target: T3, human PD-L1 on HEK293A/human PD-L1 cells; assay: FACS on HEK293A/human PD-L1 cells; remark: listed apart in the source
Procedure: as §1
(§3) Following the protocols in Example 4 and Example 5, the bi- or multi-specific antibodies of the disclosure were tested for their binding capability to human PD-L1 and human CD40 proteins by FACS using the HEK293A cells prepared in Example 1 that stably expressed human PD-L1 or human CD40.

[7] = target: T3, human PD-L1 on HEK293A/human PD-L1 cells; assay: FACS blocking assay on HEK293A/human PD-L1 cells; blocked ligand PD-1-Fc
Procedure: (§4) The bispecific antibodies were tested for their blocking activity on PD-1-PD-L1 binding by FACS using the HEK293A cells stably expressing human PD-L1 molecules as prepared in Example 1. Briefly, a 96-well plate was seeded with 10⁵ HEK293A/human PD-L1 cells in 100 μl cell culture medium, and then added with 50 μl serially diluted anti-PD-L1 antibody 56E5VH5VL4 or MBS307-3 molecules. After incubation at 4° C. for 1 h. the plate was washed with PBST for 3 times, added with 100 μl 200 μg/ml PD-1-Fc fusion proteins (Cat #:10377-10211, Sino Biological, CN), incubated at 4° C. for 1 h, washed with PBST for 3 times, and added with 1:500 diluted PE-goat anti-human IgG (Cat #:PAI-86078, Thermofisher, USA). After incubation at 4° C. for 1 h, the plate was washed with PBST for 3 times and measured for fluorescence using a FACS machine (BD).
(§5) Following the protocol of Example 7, the bi- or multi-specific antibodies were tested for their capability to block PD-1-PD-L1 binding by FACS, using the HEK293A cells prepared in Example 1 that stably expressed human PD-L1 molecules.

[8] = target: T3, human PD-L1 on HEK293A/human PD-L1 cells; assay: FACS on HEK293A/human PD-L1 cells; remark: listed apart in the source
Procedure: as §1, §3

[9] = target: T3, human PD-L1 on HEK293A/human PD-L1 cells; assay: FACS blocking assay on HEK293A/human PD-L1 cells; blocked ligand PD-1-Fc; remark: listed apart in the source
Procedure: as §4

[10] = target: T3, human PD-L1 on HEK293A/human PD-L1 cells; assay: FACS on HEK293A/human PD-L1 cells; remark: listed apart in the source
Procedure: as §1, §3

[11] = target: T3, human PD-L1 on HEK293A/human PD-L1 cells; assay: FACS blocking assay on HEK293A/human PD-L1 cells; blocked ligand PD-1-Fc; remark: listed apart in the source
Procedure: as §4, §5

Row | EC50 (read off the curve) [1] [µg/mL] | EC50 (read off the curve) [2] [µg/mL] | binding result [3] | binding result [5] | binding result [2] | EC50 (read off the curve) [3] [µg/mL] | EC50 (read off the curve) [5] [µg/mL] | EC50 (read off the curve) [6] [µg/mL] | IC50 (read off the curve) [7] [µg/mL] | EC50 (read off the curve) [8] [µg/mL] | IC50 (read off the curve) [9] [µg/mL] | EC50 (read off the curve) [10] [µg/mL] | IC50 (read off the curve) [11] [µg/mL] | Binder | binding result [4]
1 | ~0.1 | ~0.04 | binds | binds | – | – | – | – | – | – | – | – | – | MBS307-2 (bispecific antibody, human IgG1, kappa, L234A L235A, Symmetric: full-length anti-PD-L1 antibody (56E5VH5VL4) with an anti-CD40 scFv at the C terminus of each heavy chain) heavy: QVQLQESGPGLVKPSQTLSLTCTVSGGSITSDYWNWIRQHPGNKLEYMGYISYTGSTYYNPSLKSRISITRDTSKNQFSLKLSSVTTADTAVYYCARYRDWDVRAMDYWGQGTTVTVSSASTKGPSVFPLAPSSKSTSGGTAALGCLVKDYFPEPVTVSWNSGALTSGVHTFPAVLQSSGLYSLSSVVTVPSSSLGTQTYICNVNHKPSNTKVDKKVEPKSCDKTHTCPPCPAPEAAGGPSVFLFPPKPKDTLMISRTPEVTCVVVDVSHEDPEVKFNWYVDGVEVHNAKTKPREEQYNSTYRVVSVLTVLHQDWLNGKEYKCKVSNKALGAPIEKTISKAKGQPREPQVYTLPPSREEMTKNQVSLTCLVKGFYPSDIAVEWESNGQPENNYKTTPPVLDSDGSFFLYSKLTVDKSRWQQGNVFSCSVMHEALHNHYTQKSLSLSPGSGGGGSGGGGSQVQLQESGPGLVKPSDTLSLTCAVSGYSITTNYYWNWIRQPPGKGLEWMGYIKYDGSNNYNPSLKNRITISVDTSKNQFSLKLSSVTAVDTAVYYCARLDYWGQGTLVTVSSGGGGSGGGGSGGGGSGGGSDVVLTQSPLSLPVTLGQPASISCRSSQSLENSNGNTFLNWFQQRPGQSPRLLIYKVSNRFSGVPDRFSGSGSGTDFTLKISRVEAEDVGVYYCLQVTHVPFTFGQGTKLEIK light: not shown | no binding (tested: starting concentration at 40 µg/ml)
2 | ~0.3 | – | – | – | binds | ~0.2 | ~0.2 | – | – | – | – | – | – | MBS307-1 (bispecific antibody, human IgG1, kappa, L234A L235A, Both long chains carry linker 1-TGFBII at the C terminus; also called asymmetrical anti-CD40/PD-L1 antibody MBS307-1; MBS307-1-1 + MBS307-1-2) heavy 1: QVQLQESGPGLVKPSDTLSLTCAVSGYSITTNYYWNWIRQPPGKGLEWMGYIKYDGSNNYNPSLKNRITISVDTSKNQFSLKLSSVTAVDTAVYYCARLDYWGQGTLVTVSSASTKGPSVFPLAPSSKSTSGGTAALGCLVKDYFPEPVTVSWNSGALTSGVHTFPAVLQSSGLYSLSSVVTVPSSSLGTQTYICNVNHKPSNTKVDKKVEPKSCDKTHTCPPCPAPEAAGGPSVFLFPPKPKDTLMISRTPEVTCVVVDVSHEDPEVKFNWYVDGVEVHNAKTKPREEQYNSTYRVVSVLTVLHQDWLNGKEYKCKVSNKALPAPIEKTISKAKGQPREPQVYTLPPSREEMTKNQVSLWCLVKGFYPSDIAVEWESNGQPENNYKTTPPVLDSDGSFFLYSKLTVDKSRWQQGNVFSCSVMHEALHNHYTQKSLSLSPGGGGSGGGGSGGGGSGGGGSGIPPHVQKSVNNDMIVTDNNGAVKFPQLCKFCDVRFSTCDNQKSCMSNCSITSICEKPQEVCVAVWRKNDENITLETVCHDPKLPYHDFILEDAASPKCIMKEKKKPGETFFMCSCSSDECNDNIIFSEEYNTSNPD light 1: DVVLTQSPLSLPVTLGQPASISCRSSQSLENSNGNTFLNWFQQRPGQSPRLLIYKVSNRFSGVPDRFSGSGSGTDFTLKISRVEAEDVGVYYCLQVTHVPFTFGQGTKLEIKRTVAAPSVFIFPPSDEQLKSGTASVVCLLNNFYPREAKVQWKVDNALQSGNSQESVTEQDSKDSTYSLSSTLTLSKADYEKHKVYACEVTHQGLSSPVTKSFNRGEC heavy 2: QVQLQESGPGLVKPSQTLSLTCTVSGGSITSDYWNWIRQHPGNKLEYMGYISYTGSTYYNPSLKSRISITRDTSKNQFSLKLSSVTTADTAVYYCARYRDWDVRAMDYWGQGTTVTVSSASTKGPSVFPLAPSSKSTSGGTAALGCLVKDYFPEPVTVSWNSGALTSGVHTFPAVLQSSGLYSLSSVVTVPSSSLGTQTYICNVNHKPSNTKVDKKVEPKSCDKTHTCPPCPAPEAAGGPSVFLFPPKPKDTLMISRTPEVTCVVVDVSHEDPEVKFNWYVDGVEVHNAKTKPREEQYNSTYRVVSVLTVLHQDWLNGKEYKCKVSNKALPAPIEKTISKAKGQPREPQVYTLPPSREEMTKNQVSLSCAVKGFYPSDIAVEWESNGQPENNYKTTPPVLDSDGSFFLVSKLTVDKSRWQQGNVFSCSVMHEALHNHYTQKSLSLSPGGGGSGGGGSGGGGSGGGGSGIPPHVQKSVNNDMIVTDNNGAVKFPQLCKFCDVRFSTCDNQKSCMSNCSITSICEKPQEVCVAVWRKNDENITLETVCHDPKLPYHDFILEDAASPKCIMKEKKKPGETFFMCSCSSDECNDNIIFSEEYNTSNPD light 2: not shown | no binding (tested: starting concentration at 40 µg/ml)
3 | ~0.07 | ~0.04 | – | – | – | – | – | ~0.05 | ~0.06 | ~0.04 | ~0.06 | ~0.04 | ~0.02 | anti-PD-L1 antibody 56E5VH5VL4 (antibody, V domains shown, also called the monospecific anti-PD-L1 antibody; 56E5VH5CL4 [sic]) VH: QVQLQESGPGLVKPSQTLSLTCTVSGGSITSDYWNWIRQHPGNKLEYMGYISYTGSTYYNPSLKSRISITRDTSKNQFSLKLSSVTTADTAVYYCARYRDWDVRAMDYWGQGTTVTVSS VL: DIVMTQSPDSLAVSLGEKVTMNCKSSQSLLISGNQKNFLTWYQQKPGQPPKLLIYWASTRESGVPDRFSGSGSGTDFTLTISSLQAEDLAVYYCQNDFGFPFTFGQGTKVEIK | –
